Laboratory results taken from patent US20230340151A1 (Pfizer, published 2023).

Assays:
Test in all cases: flow cytometry on cells displaying the construct
[1] = biological target: T1, CID1881 (human-chicken GUCY2c chimera) (human/chicken)
T1 chain: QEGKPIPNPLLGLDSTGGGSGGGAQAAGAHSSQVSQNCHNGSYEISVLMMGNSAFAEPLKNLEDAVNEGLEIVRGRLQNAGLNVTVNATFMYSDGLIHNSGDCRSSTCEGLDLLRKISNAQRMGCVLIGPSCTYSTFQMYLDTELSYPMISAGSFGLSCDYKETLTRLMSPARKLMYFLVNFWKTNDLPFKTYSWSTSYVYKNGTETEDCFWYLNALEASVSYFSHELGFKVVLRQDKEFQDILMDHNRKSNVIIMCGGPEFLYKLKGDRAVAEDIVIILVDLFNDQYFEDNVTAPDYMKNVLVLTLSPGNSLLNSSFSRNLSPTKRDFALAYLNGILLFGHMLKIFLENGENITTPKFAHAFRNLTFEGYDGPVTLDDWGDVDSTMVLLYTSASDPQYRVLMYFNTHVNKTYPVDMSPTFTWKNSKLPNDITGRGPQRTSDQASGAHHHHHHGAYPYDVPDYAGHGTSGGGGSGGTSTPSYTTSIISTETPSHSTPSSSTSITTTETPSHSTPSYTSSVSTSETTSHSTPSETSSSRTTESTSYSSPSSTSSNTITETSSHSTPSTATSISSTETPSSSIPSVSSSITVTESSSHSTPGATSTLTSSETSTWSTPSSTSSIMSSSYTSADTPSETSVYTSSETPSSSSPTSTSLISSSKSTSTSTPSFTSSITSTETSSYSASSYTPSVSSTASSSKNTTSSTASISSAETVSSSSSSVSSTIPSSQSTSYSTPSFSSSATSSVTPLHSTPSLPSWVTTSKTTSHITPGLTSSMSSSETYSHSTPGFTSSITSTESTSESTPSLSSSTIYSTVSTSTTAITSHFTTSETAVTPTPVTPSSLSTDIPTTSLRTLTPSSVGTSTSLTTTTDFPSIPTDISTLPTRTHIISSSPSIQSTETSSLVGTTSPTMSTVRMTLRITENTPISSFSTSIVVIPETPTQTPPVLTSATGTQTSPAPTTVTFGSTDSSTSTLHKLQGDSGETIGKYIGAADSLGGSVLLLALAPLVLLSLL

[2] = biological target: T2, CID1939 (reverse chimera, chicken GUCY2c with human residues) (chicken/human)
T2 chain: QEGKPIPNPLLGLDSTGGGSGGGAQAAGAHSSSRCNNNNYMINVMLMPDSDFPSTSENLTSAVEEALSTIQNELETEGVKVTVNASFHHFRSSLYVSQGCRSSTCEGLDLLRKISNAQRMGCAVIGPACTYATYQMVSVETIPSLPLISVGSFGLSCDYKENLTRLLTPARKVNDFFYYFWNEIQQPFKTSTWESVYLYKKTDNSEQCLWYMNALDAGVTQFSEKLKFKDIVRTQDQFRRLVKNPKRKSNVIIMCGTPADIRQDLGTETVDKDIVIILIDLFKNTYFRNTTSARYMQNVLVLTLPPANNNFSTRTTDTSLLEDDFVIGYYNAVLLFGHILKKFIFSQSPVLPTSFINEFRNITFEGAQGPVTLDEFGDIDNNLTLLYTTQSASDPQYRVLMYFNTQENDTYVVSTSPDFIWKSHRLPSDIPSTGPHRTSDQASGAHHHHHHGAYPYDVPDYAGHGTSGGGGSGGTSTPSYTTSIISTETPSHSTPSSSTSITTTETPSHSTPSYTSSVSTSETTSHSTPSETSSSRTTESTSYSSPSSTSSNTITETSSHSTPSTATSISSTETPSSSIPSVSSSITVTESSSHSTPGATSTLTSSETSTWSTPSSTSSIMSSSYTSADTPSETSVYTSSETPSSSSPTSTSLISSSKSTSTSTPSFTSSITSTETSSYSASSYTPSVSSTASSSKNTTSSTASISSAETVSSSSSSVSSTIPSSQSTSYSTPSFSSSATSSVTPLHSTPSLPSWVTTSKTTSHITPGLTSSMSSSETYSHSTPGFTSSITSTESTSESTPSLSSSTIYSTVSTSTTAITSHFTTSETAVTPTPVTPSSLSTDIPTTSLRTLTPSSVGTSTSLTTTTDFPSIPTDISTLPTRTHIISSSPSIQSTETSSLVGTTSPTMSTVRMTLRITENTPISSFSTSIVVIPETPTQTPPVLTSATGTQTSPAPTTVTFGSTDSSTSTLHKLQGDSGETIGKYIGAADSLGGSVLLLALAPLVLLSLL

[3] = biological target: CID1941 (human GUCY2c point mutant) (human)
[4] = biological target: CID1943 (human GUCY2c point mutant) (human)
[5] = biological target: CID1947 (human GUCY2c point mutant) (human)
[6] = biological target: CID1948 (human GUCY2c point mutant) (human)
[7] = biological target: CID1950 (human GUCY2c point mutant) (human)

Measured: binding result

B1: GUCY2C-1608 (bispecific antibody)
chain 1: DIQLTQSPSSLSASVGDRVTITCRASESVDYYGSSLLQWYQQKPGKAPKLLIYAASKLASGVPSRFSGSGSGTDFTLTISSLQPEDFATYYCQQTRKAYTFGQGTKLEIKGGGSGGGGEVQLVESGGGLVQPGGSLRLSCAASGFTFSDYYMTWVRQAPGKGLEWVAFIRNQARGYTSDHNPSVKGRFTISRDNAKNSLYLQMNSLRAEDTAVYYCARDRPSYYVLDYWGQGTTVTVSSGCPPCPAPEAAGAPSVFLFPPKPKDTLMISRTPEVTCVVVDVSHEDPEVKFNWYVDGVEVHNAKTKPREEQYNSTYRVVSVLTVLHQDWLNGKEYKCKVSNKALPAPIEKTISKAKGQPREPQVCTLPPSREEMTKNQVSLWCLVKGFYPSDIAVEWESNGQPENNYKTTPPVLDSDGSFFLYSKLTVDKSRWQQGNVFSCSVMHEALHNHYTQKSLSLSPG
chain 2: DIQMTQSPSSLSASVGDRVTITCTSSQSLFNVRSQKNYLAWYQQKPGKAPKLLIYWASTRESGVPSRFSGSGSGTDFTLTISSLQPEDFATYYCKQSYDLFTFGGGTKVEIKGGGGSGGGGEVQLVESGGGLVQPGGSLRLSCAASGFTFSSYWMHWVRQAPGKGLEWIGEIKPSNELTNVHEKFKDRFTISVDKAKNSAYLQMNSLRAEDTAVYYCTRTITTTEGYWFFDVWGQGTLVTVSSGCPPCPAPEAAGAPSVFLFPPKPKDTLMISRTPEVTCVVVDVSHEDPEVKFNWYVDGVEVHNAKTKPREEQYNSTYRVVSVLTVLHQDWLNGKEYKCKVSNKALPAPIEKTISKAKGQPREPQVYTLPPCREEMTKNQVSLSCAVKGFYPSDIAVEWESNGQPENNYKTTPPVLDSDGSFFLVSKLTVDKSRWQQGNVFSCSVMHEALHNHYTQKSLSLSPG
notes: also called GUCY2c CD3 bispecific
binds: all assays above
